# Results taken from patent publication US20240141060A1 (Novartis, published 2024).
# Changes are numbered by the printed parent chain. Names may count otherwise.
# T1: Recombinant Mouse 5′-Nucleotidase/CD73 Protein, CF (R&D Systems Cat: 4488-EN) (mouse, UniProt Q61503 29-549, limits assumed)
# T1 construct: Bought protein; also called Mouse CD73-His; recombinant mouse CD73; not shown: His tag
# T1 sequence (looked up): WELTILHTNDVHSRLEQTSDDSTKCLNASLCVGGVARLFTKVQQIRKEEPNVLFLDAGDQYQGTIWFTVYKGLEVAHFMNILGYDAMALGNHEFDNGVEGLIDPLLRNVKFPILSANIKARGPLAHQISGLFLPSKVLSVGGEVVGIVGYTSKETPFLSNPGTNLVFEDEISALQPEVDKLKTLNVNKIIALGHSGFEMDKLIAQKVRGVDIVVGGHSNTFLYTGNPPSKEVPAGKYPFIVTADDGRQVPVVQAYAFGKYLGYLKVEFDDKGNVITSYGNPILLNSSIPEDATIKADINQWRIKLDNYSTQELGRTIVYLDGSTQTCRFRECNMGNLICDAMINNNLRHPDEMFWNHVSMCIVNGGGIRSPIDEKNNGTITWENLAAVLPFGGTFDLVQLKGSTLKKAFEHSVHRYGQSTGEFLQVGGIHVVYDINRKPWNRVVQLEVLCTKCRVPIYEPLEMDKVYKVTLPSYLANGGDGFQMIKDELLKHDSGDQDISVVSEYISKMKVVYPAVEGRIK
# T2: recombinant rat CD73 (Sino Biological 80375-R08H) (rat, UniProt P21588 29-551)
# T2 construct: Bought protein; also called rCD73; rat CD73/His
# T2 sequence (looked up): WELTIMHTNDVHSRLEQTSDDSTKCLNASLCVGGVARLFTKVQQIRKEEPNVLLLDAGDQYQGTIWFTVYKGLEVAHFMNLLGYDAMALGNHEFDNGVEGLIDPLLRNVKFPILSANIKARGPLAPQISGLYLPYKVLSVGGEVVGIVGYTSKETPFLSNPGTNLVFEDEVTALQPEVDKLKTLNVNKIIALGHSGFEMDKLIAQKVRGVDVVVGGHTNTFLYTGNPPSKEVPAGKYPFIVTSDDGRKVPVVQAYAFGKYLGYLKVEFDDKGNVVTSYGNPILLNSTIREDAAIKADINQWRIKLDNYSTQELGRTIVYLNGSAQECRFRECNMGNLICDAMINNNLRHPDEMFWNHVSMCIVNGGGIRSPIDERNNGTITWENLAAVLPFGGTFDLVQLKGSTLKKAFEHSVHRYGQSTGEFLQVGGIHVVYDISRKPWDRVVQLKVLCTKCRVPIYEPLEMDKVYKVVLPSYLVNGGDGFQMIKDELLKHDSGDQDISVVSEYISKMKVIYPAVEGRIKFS
# T3: Recombinant Human 5′-Nucleotidase/CD73 Protein, CF (R&D Systems Cat: 5795-EN) (human, UniProt P21589 27-547)
# T3 construct: Bought protein; also called Human CD73-His; recombinant human CD73; not shown: His tag
# T3 sequence (looked up): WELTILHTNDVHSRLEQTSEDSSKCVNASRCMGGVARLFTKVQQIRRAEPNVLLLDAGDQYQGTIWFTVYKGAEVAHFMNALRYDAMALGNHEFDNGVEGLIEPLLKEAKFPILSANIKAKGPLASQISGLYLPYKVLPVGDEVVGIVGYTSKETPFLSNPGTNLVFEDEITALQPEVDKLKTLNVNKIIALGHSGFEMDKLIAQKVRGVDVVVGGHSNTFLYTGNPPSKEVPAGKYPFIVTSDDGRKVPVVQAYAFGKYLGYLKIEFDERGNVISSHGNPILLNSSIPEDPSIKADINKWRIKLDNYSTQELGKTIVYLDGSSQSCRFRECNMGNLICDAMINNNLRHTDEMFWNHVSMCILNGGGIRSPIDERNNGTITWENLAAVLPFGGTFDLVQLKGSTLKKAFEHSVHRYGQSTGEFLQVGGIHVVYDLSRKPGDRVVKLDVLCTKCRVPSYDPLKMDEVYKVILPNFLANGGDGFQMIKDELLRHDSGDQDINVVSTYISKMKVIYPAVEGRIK
# T4: Cynomolgus CD73/NT5E Protein (His Tag) (Sino Biological Cat: 90192-C08H-50) (cynomolgus monkey, UniProt A0A2K5V5U7 27-547)
# T4 construct: treated as one protein; also called Cynomolgus CD73-His; recombinant cynomolgus monkey CD73; not shown: His tag
# T4 sequence: T3 sequence (looked up) with M199T, T350A, V466I
# B1: Fab 373 (Fab, V domains shown)
# VH: EVQLLESGGGLVQPGGSLRLSCAASGFTFHRYAMSWVRQAPGKGLEWVSAISGSGMNTYYADSVKGRFTISRDNSKNTLYLQMNSLRAEDTAVYYCARGGLYGSGSYLSDFDLWGRGTLVTVSS
# VL: EIVLTQSPATLSVSPGERATLSCRASQSVGSNLAWYQQKPGQAPRLLIYGASTRATGIPARFSGSGSGTEFTLTISSLQSEDFAVYYCQQHNAFPYTFGGGTKVEIKR
# B2: anti-CD73 antibody 373.A (antibody, human IgG4 S228P, kappa, V domains shown)
# VH: B1 VH
# VL: B1 VL
# notes: IgG4 S228P format
# B3: 373.A Fab (Fab, V domains shown)
# VH: B1 VH
# VL: B1 VL
# Assays:
# [1] = target: T1, Recombinant Mouse 5′-Nucleotidase/CD73 …; assay: Biacore SPR, Fab captured by anti-human Fab on CM5 chip, CD73 as analyte
# Procedure: (§1) Proteins used were as follows: recombinant human CD73 (R&D Systems 5795-EN); recombinant cynomolgus monkey CD73 (Sino Biological 90912-C08H); recombinant mouse CD73 (R&D Systems 4488-EN); and recombinant rat CD73 (Sino Biological 80375-R08H). Anti-human Fab (GE Healthcare Life Sciences) was immobilized on all 4 flow cells (Fc) on a CM5 chip (GE). […] 0.01 nM to 90 nM CD73 (3-fold dilution series) was flown over all 4 Fcs. All samples were diluted in running buffer HBS-EP+(pH 7.4, 0.01 M HEPES, 150 mM NaCl, 3 mM EDTA and 0.05% (v/v) P20).
# [2] = target: T2, recombinant rat CD73 (Sino Biological …); assay: as above
# Procedure: as §1
# [3] = target: T3, Recombinant Human 5′-Nucleotidase/CD73 …; assay: Biacore SPR, Fab captured by anti-human Fab on CM5 chip, CD73 0.01-90 nM as analyte
# Procedure: as §1
# [4] = target: T4, Cynomolgus CD73/NT5E Protein (His Tag) …; assay: as above
# Procedure: as §1
# [5] = target: T1, Recombinant Mouse 5′-Nucleotidase/CD73 …; assay: Biacore SPR, His-tagged CD73 captured by anti-His antibody on CM5 chip, antibody as analyte
# Procedure: (§2) The anti-His Ab was directly immobilized onto a CM5 chip surface by amine coupling. The His-tagged human CD73/His, cynomolgus monkey CD73/His, mouse CD73/His or rat CD73/His was flowed over and captured at a desired resonance unit (RU) for an Rmax of 20. Antibody analyte concentrations in serial dilutions of IgG or Fab were flowed over at 60 μL/min. The sensorgrams were analyzed using the manufacturer's software for a 1:1 binding model.
# [6] = target: T2, recombinant rat CD73 (Sino Biological …); assay: as above
# Procedure: as §2
# [7] = target: T3, Recombinant Human 5′-Nucleotidase/CD73 …; assay: Biacore SPR, His-tagged CD73 captured by anti-His antibody on CM5 chip, IgG as analyte, 1:1 model
# Procedure: as §2
# (§3) Therefore, given that 1:1 bidentate binding will favor avidity, the whole Ab affinities were used rather than Fab measurements.
# [8] = target: T4, Cynomolgus CD73/NT5E Protein (His Tag) …; assay: as above
# Procedure: as §2, §3
# [9] = target: T1, Recombinant Mouse 5′-Nucleotidase/CD73 …; assay: Biacore SPR, His-tagged CD73 captured by anti-His antibody on CM5 chip, Fab as analyte
# Procedure: as §2
# [10] = target: T2, recombinant rat CD73 (Sino Biological …); assay: as above
# Procedure: as §2
binder,measurement,setting,value
B1,binding result,[1],no binding (tested: 0.01 nM to 90 nM CD73)
same,binding result,[2],no binding (tested: 0.01 nM to 90 nM CD73)
same,Kd,[3],13 nM
same,Kd,[4],9.46 nM
B2,binding result,[5],no binding
same,binding result,[6],no binding
same,Kd,[7],0.991 nM
same,Kd,[8],0.068 nM
B3,binding result,[9],no binding
same,binding result,[10],no binding
